Measurements reported in patent US20240279281A1, “Peptide Inhibitors of Interleukin-23 Receptor” (Janssen Pharmaceutica NV, priority 2023, published 2024).
Starred links: 1 amine or outer side, 2 acyl side, 3 side chain; linkers in the order of their positions; H or OH if unused. Positions of bridges follow the written chain, without caps; N, C: chain ends. Non-standard residues stand in square brackets, D forms with d. Groups on a side chain read outwards from the residue. Primed or numbered codes have the meaning given here. TMAPF = 5-(4-(2-amino-2-carboxyethyl)phenoxy)-N,N,N-trimethylpentan-1-aminium, C[N+](C)(C)CCCCCOc1ccc(C[C@H](N[*:1])C(=O)[*:2])cc1; AEF(G) = 2-amino-3-(4-(2-guanidinoethoxy)phenyl)propanoic acid, N=C(N)NCCOc1ccc(C[C@H](N[*:1])C(=O)[*:2])cc1; 6Br2Nal = 2-amino-3-(6-bromonaphthalen-2-yl)propanoic acid, O=C([C@H](Cc1ccc2cc(Br)ccc2c1)N[*:1])[*:2]; 6F2Nal = 2-amino-3-(6-fluoronaphthalen-2-yl)propanoic acid, O=C([C@H](Cc1ccc2cc(F)ccc2c1)N[*:1])[*:2]; Trp(7-(3-AcNH-Ph)) = CC(=O)Nc1cccc(-c2cccc3c(C[C@H](N)C(=O)O)c[nH]c23)c1; 2Nal(6-OH) = N[C@@H](Cc1ccc2cc(O)ccc2c1)C(=O)O; Trp(7-Me) = Cc1cccc2c(C[C@H](N)C(=O)O)c[nH]c12; 3Pal(5-Me) = Cc1cncc(C[C@H](N)C(=O)O)c1; γGlu = O=C(O)[C@H](CCC(=O)[*:2])N[*:1]; AEF = NCCOc1ccc(C[C@H](N)C(=O)O)cc1; 3Pal = N[C@@H](Cc1cccnc1)C(=O)O; NMecPEG3a = not defined here; Pen = CC(C)(S)[C@H](N)C(=O)O; PEG2′ = not defined here; Thp = NC1(C(=O)O)CCOCC1; Sar = CNCC(=O)O

T1: interleukin-23 receptor (IL-23R) (UniProt Q5VWK5 24-629, limits assumed)
T1 sequence (looked up): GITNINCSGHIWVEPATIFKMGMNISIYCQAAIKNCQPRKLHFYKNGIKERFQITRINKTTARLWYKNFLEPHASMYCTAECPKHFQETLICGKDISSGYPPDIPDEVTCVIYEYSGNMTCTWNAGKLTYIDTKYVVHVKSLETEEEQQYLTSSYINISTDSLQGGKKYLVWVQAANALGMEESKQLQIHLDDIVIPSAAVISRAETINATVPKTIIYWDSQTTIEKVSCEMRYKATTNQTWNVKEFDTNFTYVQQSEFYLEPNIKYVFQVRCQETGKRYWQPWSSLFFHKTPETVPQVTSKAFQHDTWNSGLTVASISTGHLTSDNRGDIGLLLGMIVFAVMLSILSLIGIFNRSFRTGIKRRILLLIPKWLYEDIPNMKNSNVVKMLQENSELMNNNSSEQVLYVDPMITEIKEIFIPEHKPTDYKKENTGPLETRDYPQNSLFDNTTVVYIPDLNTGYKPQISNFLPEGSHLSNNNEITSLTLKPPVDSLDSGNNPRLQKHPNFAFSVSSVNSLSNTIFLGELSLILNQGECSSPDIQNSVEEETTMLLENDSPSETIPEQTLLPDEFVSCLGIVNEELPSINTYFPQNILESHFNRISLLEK

T2: interleukin-23 receptor (IL-23R) (UniProt Q5VWK5 24-629, limits assumed)
T2 sequence (looked up): T1 sequence (looked up)

B1: SEQ ID NO: 283 (peptide)
peptide: Ac-[Pen]NT[Trp(7-Me)]K(Ac)[Pen][AEF][2Nal(6-OH)][Thp]EN[3Pal][Sar]K([PEG2′-PEG2′-γGlu-C18OH])-NH2
modifications: disulfide 1-6 (inferred)
B2: SEQ ID NO: 319 (peptide)
peptide: cPEG3aCO-[Pen]NT[Trp(7-Me)]K(NMecPEG3a)[Pen][AEF][2Nal(6-OH)][Thp]EN[3Pal][Sar]-NH2
modifications: disulfide 1-6 (inferred); not fully specified; printed as cPEG3aCO-Pen(3)-N-T-7MeW-K(NMecPEG3a)-Pen(3)-AEF-6OH2Nal-THP-E-N-3Pya-Sar-CONH2; reading uncertain
B3: SEQ ID NO: 349 (peptide)
peptide: Ac-X[Pen]NT[Trp(7-Me)]K(Ac)[Pen][AEF][2Nal(6-OH)][Thp]EN[3Pal][Sar]-NH2
modifications: disulfide 2-7 (inferred); not fully specified (residue 1); printed as MeCO-k(d)-Pen(3)-N-T-7MeW-K(Ac)-Pen(3)-AEF-6OH2Nal-THP-E-N-3Pya-Sar-CONH2
B4: SEQ ID NO: 282 (peptide)
peptide: Ac-[dR][Pen]NT[Trp(7-Me)]K(Ac)[Pen][AEF][2Nal(6-OH)][Thp]EN[3Pal][Sar]K([PEG2′-PEG2′-γGlu-C18OH])-NH2
modifications: disulfide 2-7 (inferred)
B5: SEQ ID NO: 11 (peptide)
peptide: XXNTXXXXXXENXX
modifications: MeCO-k(Me)3-Pen(3)-N-T-7(3NAcPh)W-K(Ac)-Pen(3)-AEF(G)-6OH2Nal-THP-E-N-5MePyridinAla-Sar-CONH2
B6: SEQ ID NO: 287 (peptide)
peptide: Ac-[dR][Pen]NT[Trp(7-(3-AcNH-Ph))]K(Ac)[Pen][AEF][2Nal(6-OH)][Thp]EN[3Pal][Sar]-NH2
modifications: disulfide 2-7 (inferred)
B7: SEQ ID NO: 407 (peptide)
peptide: Ac-[dR][Pen]NT[Trp(7-Me)]K(Ac)[Pen][AEF][6F2Nal][Thp]EN[3Pal][Sar]-NH2
modifications: disulfide 2-7 (inferred)
B8: SEQ ID NO: 15 (peptide)
peptide: Ac-[dR][Pen]NT[Trp(7-(3-AcNH-Ph))]K(Ac)[Pen][AEF(G)][2Nal(6-OH)][Thp]EN[3Pal(5-Me)][Sar]-NH2
modifications: disulfide 2-7 (inferred)
B9: SEQ ID NO: 59 (peptide)
peptide: Ac-[dR][Pen]NT[Trp(7-Me)]K(Ac)[Pen][TMAPF][2Nal(6-OH)][Thp]EN[3Pal][Sar]-NH2
modifications: disulfide 2-7 (inferred)
B10: SEQ ID NO: 444 (peptide)
peptide: Ac-[dR][Pen]NT[Trp(7-Me)]K(Ac)[Pen][AEF][6Br2Nal][Thp]EN[Thp]-NH2
modifications: disulfide 2-7 (inferred)

Key:
[1] = target: T1, interleukin-23 receptor (IL-23R); test: cell-based or functional assay
[2] = target: T2, interleukin-23 receptor (IL-23R); test: cell-based or functional assay; remark: listed apart in the source

Binder	PBMC pSTAT3 IC50 [1]	IL23R Reporter Assay IC50 [2] [nM]
B1	< 1 nM	–
B2	< 0.1 nM	–
B3	< 10 pM	–
B4	< 1 nM	–
B5	–	< 10
B6	< 0.1 nM	–
B7	< 0.1 nM	–
B8	–	< 10
B9	< 0.1 nM	–
B10	> 1 nM	–
